We go through one protein from US20060025337.

For this data set, the target named is T1, p53-382 acetylated peptide substrate ('Fluor de Lys-SIRT1', BIOMOL) (not fully specified).
T1 chain: RHKK

B1: recombinant human SIRT1 (His6-tagged) (protein)
chain: MADEAALALQPGGSPSAAGADREAASSPAGEPLRKRPRRDGPGLERSPGEPGGAAPEREVPAAARGCPGAAAAALWREAEAEAAAAGGEQEAQATAAAGEGDNGPGLQGPSREPPLADNLYDEDDDDEGEEEEEAAAAAIGYRDNLLFGDEIITNGFHSCESDEEDRASHASSSDWTPRPRIGPYTFVQQHLMIGTDPRTILKDLLPETIPPPELDDMTLWQIVINILSEPPKRKKRKDINTIEDAVKLLQECKKIIVLTGAGVSVSCGIPDFRSRDGIYARLAVDFPDLPDPQAMFDIEYFRKDPRPFFKFAKEIYPGQFQPSLCHKFIALSDKEGKLLRNYTQNIDTLEQVAGIQRIIQCHGSFATASCLICKYKVDCEAVRGDIFNQVVPRCPRCPADEPLAIMKPEIVFFGENLPEQFHRAMKYDKDEVDLLIVIGSSLKVRPVALIPSSIPHEVPQILINREPLPHLHFDVELLGDCDVIINELCHRLGGEYAKLCCNPVKLSEITEKPPRTQKELAYLSELPPTPLHVSEDSSSPERTSPPDSSVIVTLLDQAAKSNDDLDVSESKGCMEEKPQEVQTSRNVESIAEQMENPDLKNVGSSTGEKNERTSVAGTVRKCWPNRVAKEQISRRLDGNQYLFLPPNRYIFHGAEVYSDSEDDVLSSSSCGSNSDSGTCQSPSLEEPMEDESEIEEFYNGLEDEPDVPERAGGAGFGTDGDDQEAINEAISVKQEVTDMNYPSNKS
As to B1, the “Km for p53-382 acetylated peptide (SIRT1 initial rate at 3 mM NAD+, control, no resveratrol)” value is recorded as “Km(control, ν)=64 µM”; the “Km for p53-382 acetylated peptide (SIRT1 initial rate at 3 mM NAD+, with 100 µM resveratrol)” value was “Km (+resveratrol, Δ)=1.8 µM”; the “fold decrease of the acetylated peptide Km caused by 100 µM resveratrol” value is reported as “Its effect on the acetylated peptide Km was particularly striking, amounting to a 35-fold decrease”.
